In the nanobody polyreactivity screen of Harvey et al. (2022):

Assay: yeast display, Sf9 membrane polyspecificity reagent, FACS + sequencing; frameworks hold sequencing errors
Outline: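 Polyreactivity labels are assigned by the sorting gate from which each nanobody was recovered. The gates were low and high (top ~1%), set on anti-HA fluorescence for expression and streptavidin fluorescence for reagent binding. Before sorting, galactose-induced (36–48 hours) yeast display cells were stained for 1 hour at 4 °C with 10% biotinylated, detergent-solubilized Sf9 membrane reagent.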

## QVQLVESGGGLVQAGGSLRLSCAASGGIFFYSAMGWYRQAPGTERELVAAISYSGGSTYYADSVKGRFTISRDIAKNTVYLQMISLKPEDTAVYYCAADVYSESKSGIYEYWGQGTQVTVSS
  polyreactivity (PSR sort gate): low polyreactivity

## QVQLVESGGGLVQAGGSLRLSCAASGGIFGGYAMGWYRPAPGKEGELVAVITSGGSTYYADSVKGRFTISRDNAKNTVYLQMNSLKPEDTAVYYCAALGQYQTVYSDGYDYYYWGQGTKVTVSS
  polyreactivity (PSR sort gate): low polyreactivity

## QVQLVESGGGLVQAGGSLRLSCAASGGIFGGYAMGWYRQAPGKEGELVPVITSGGSTYYADSVKARFTISRDNAKNTVYLQMNSLKPEDTAVYYCAADGHSYSYSTYDYWGQGTQVTVSS
  polyreactivity (PSR sort gate): low polyreactivity

## QVQLVESGGGLVQAGGSLRLSCAASGGIFGHNAMGWYRQAPGKERELVAAISYTGGSTYYADSVKGRFTISRDNAKNTVNLQMNSLKPEDTAVYYCNAVQRRFRYPFDYWGQGTQVTVSS
  polyreactivity (PSR sort gate): low polyreactivity

## QVQLVESGGGLVQAGGSLRLSCAASGGIFGIYAMGSYRQAPGKERELVAAINGGTSTYYADSVKGRFTISRDNAKNTVYLQMNSLKPEDTAVYYCAADWRYLYYALDYWGQGTQVTVSS
  polyreactivity (PSR sort gate): low polyreactivity

## QVQLVESGGGLVQAGGSLRLSCAASGGIFGRYAMGWYIQAPGKERELFAAISKRGGSTYYADSVKGRFTISRDNAKNTVYLQMNSLKPEDTAVYYCNAYRLSYTTFGKADGDYWGQGTQVTVSS
  polyreactivity (PSR sort gate): high polyreactivity

## QVQLVESGGGLVQAGGSLRLSCAASGGIFGWYTMGWYRQAPGKERELVAAINFSGSRTYYADSVKGRFTISRDNAKNTVYLQMNSLKPEDTAVYYCNAVYHQFREEYWGQGTQVTVSS
  polyreactivity (PSR sort gate): high polyreactivity

## QVQLVESGGGLVQAGGSLRLSCAASGGIFGYYAMGWYRPAPGKERELVAAINYSGGSTYYADSVKGRFTISRDNAKNTVYLQMNSLKPEDTAVYYCNAVVRDYTFRYYYWGQGTQVTVSS
  polyreactivity (PSR sort gate): low polyreactivity

## QVQLVESGGGLVQAGGSLRLSCAASGGIFHHYAMGWSRPAPGKERELVAGISWRGTSTYYADSVKGRFTISRDNAKNTVYLQMNSLKPEDTAVYYCARVYPYSVGYNSGHPASYDYWGQGTQVTVSS
  polyreactivity (PSR sort gate): high polyreactivity

## QVQLVESGGGLVQAGGSLRLSCAASGGIFHSNAMGWYRQAPGKERELVAAISYSGGSTYYADSVKGRFTISRDNAKNTVYLQMNSLKPEDTAVYYCAKRYYGSPQLRYYYWGQGTQVTVSS
  polyreactivity (PSR sort gate): high polyreactivity

## QVQLVESGGGLVQAGGSLRLSCAASGGIFIGYAMGWYRQAPGKERELVARIRSSGGTTYYADSVKGRFTISRDNAKNTVYLQMNSLKPEDTAVYYCAKRTSSSWAYGPYYYWGQGTQVTVSS
  polyreactivity (PSR sort gate): high polyreactivity

## QVQLVESGGGLVQAGGSLRLSCAASGGIFIYNAMGWYRQAPGKEREFVAAINISGGNTYYADSVKGRFTISRDNAKNTVYLQMNSLKPEDTAVYYCAKSGRYGFWGQGTQVTVSS
  polyreactivity (PSR sort gate): high polyreactivity

## QVQLVESGGGLVQAGGSLRLSCAASGGIFKRYAMGWYRQEPGKERELVAAISGRGGGTYYADSVKGRFTISRDNAKNTDYLQMNSLKPEDTAVYYCNARLSWSAFGYWGQGTQVTVSS
  polyreactivity (PSR sort gate): high polyreactivity

## QVQLVESGGGLVQAGGSLRLSCAASGGIFKYYAMGWYRLAPGKERELVAAITSGGNTNYADSVKGRFTISRDNAKNTVYLQMNSLKPEDTAVYYCAARSISRRTWQYNYWGQGTQVTVSS
  polyreactivity (PSR sort gate): high polyreactivity

## QVQLVESGGGLVQAGGSLRLSCAASGGIFLFNAMGWYRQAPGKERELVAAITDGGSTYYADSVKGRFTISRDNAKNTVYLQMNSLIPDDTAVYYCNKDSSFWGYYIAQVNERDYWGQGTQVTVSS
  polyreactivity (PSR sort gate): low polyreactivity

## QVQLVESGGGLVQAGGSLRLSCAASGGIFLSNAMGWYRQAPGKERELVAAISRSGGSTYYADSVKGRFTISRDNAKNTVYLQMNSLKPEDTAVYYCAARWTRNYGMNYWGQGTQVTVSS
  polyreactivity (PSR sort gate): high polyreactivity

## QVQLVESGGGLVQAGGSLRLSCAASGGIFNYYAMGWYRQAPGKERELVAAMTSAGSTYADSVKGRFTISRDNATNTVSLQMNILKPEDTAVYYCNAVGVVVKFGYYLIGYAKWYDYWGQGSQVTVSS
  polyreactivity (PSR sort gate): low polyreactivity

## QVQLVESGGGLVQAGGSLRLSCAASGGIFNYYVMGWYRQAPGIERELVAAISNGGSPNYADSVKGRFTISRDNAKNPVYLQMNSLKPEDTAVYYCAAHTYSELSWLVVYPYDYWGQGTQVTVSS
  polyreactivity (PSR sort gate): low polyreactivity

## QVQLVESGGGLVQAGGSLRLSCAASGGIFPFYAMGWDRQAPGKERELVAVITSSGGSTFYSDSVKGRFTISRDNAKNTVYLQMNSLKPEDTAVYYGNARRVSREIWYGATGNDYWGQGTQGTVSS
  polyreactivity (PSR sort gate): low polyreactivity

## QVQLVESGGGLVQAGGSLRLSCAASGGIFPFYAMGWYRQAPGKERELVAAISGIGDSTYYADSVKGRFTISRDNAKNTVYLQMNSLKPEDTAVYYCAREFSDGLSGKFDYWGQGTQVTVSS
  polyreactivity (PSR sort gate): low polyreactivity

## QVQLVESGGGLVQAGGSLRLSCAASGGIFPTYVMGWYRQAPGKERELVAAIDRNGTSTTYADSVKGRFTISRDYAKNTVYLQMNSLKPEDTAVYYCAAGYNDQTSAYDYWGQGTQVTVSS
  polyreactivity (PSR sort gate): low polyreactivity

## QVQLVESGGGLVQAGGSLRLSCAASGGIFRFNAMAWYRQAPGKERELVAAINRGGSTDYADSVKGRFTSSRDNAKNTVYLQMNSLKPEDTAVYYCAADYEYRPKTRDGYYWGQGTQVTVSS
  polyreactivity (PSR sort gate): low polyreactivity

## QVQLVESGGGLVQAGGSLRLSCAASGGIFRGYAMGWYRQAPGKERELVATSRSSGRTNYADSVKGRFTISRDNAKNTVYLQMNSLKPEDTAVYFCNKRRWWQYDSWGDWVLGGDDYWGQGTQVTVSS
  polyreactivity (PSR sort gate): low polyreactivity

## QVQLVESGGGLVQAGGSLRLSCAASGGIFRIYAMGGYRQAPGKERELVAAISRSGGTTYYADSVKGRFTISRDNAKNTVDLQMNSLKPEDTAVYYCNARYYQSRHVNDVPNYYWGHGTQVTVSS
  polyreactivity (PSR sort gate): high polyreactivity

## QVQLVESGGGLVQAGGSLRLSCAASGGIFRIYAMGWYRQAPGKERELVASISRSGGRTYYADSVKGRFTISRDNAKNTVYLQMNSLKPEDTAVYYCAVSLQGYNQVDYYYWGQGTQVTVSS
  polyreactivity (PSR sort gate): high polyreactivity

## QVQLVESGGGLVQAGGSLRLSCAASGGIFRVYAMGWYRQAPGKERELVAAISRSGSSTYYADSVKGRFTISRDNAKNTVYLQMTSLKPEDTAVYYCNAYSQYWLGNNYWGQGTQVTLSS
  polyreactivity (PSR sort gate): high polyreactivity

## QVQLVESGGGLVQAGGSLRLSCAASGGIFRYSAMGWYRQAPGKERELVATDGDTYYADSVKGRFTISRDNAKNTVYLQLNSLKPEDTAVYYCAAEPVRYYAMEYWGQGTQVTVSS
  polyreactivity (PSR sort gate): low polyreactivity

## QVQLVESGGGLVQAGGSLRLSCAASGGIFRYYAMGWYRQAPGKERELVAAISRSGDSTYYADSVKGRFTISRDNAKNTVYLQMNSLKPEDTAVYYCAATRLYWKIFYGDGDYWGQGTQVTVSS
  polyreactivity (PSR sort gate): high polyreactivity

## QVQLVESGGGLVQAGGSLRLSCAASGGIFSPNAMGWYRQAPGKERELVAGITFSGGSTYYADSVKGRFTISRDNAKTTVYLQMNSLKPEDTAVYYCNARVPPQGWGPWKAFDYWGQGTQVTVSS
  polyreactivity (PSR sort gate): low polyreactivity

## QVQLVESGGGLVQAGGSLRLSCAASGGIFSRNAMGWSRQAPGKERELVAAISSGGSTYYADSVKGRFTISRDNAKNTVYLQMNTLKPEDTAVYYCAAKRSGQRTLLGYWGQGTQVTVSS
  polyreactivity (PSR sort gate): high polyreactivity

## QVQLVESGGGLVQAGGSLRLSCAASGGIFSYAMGWYRQAPGKERELVADINSDGSTTYADSVKGRFTISRDNAKNTVYLQMNSLKPEDTAVYYCAVDVSVNWPLLERYEYWGQGTQVTVSS
  polyreactivity (PSR sort gate): low polyreactivity

## QVQLVESGGGLVQAGGSLRLSCAASGGIFSYYAMGWYRQAPGKEREFVAAIDWGGGSTYYADSVKGRFTISRDNAKNTVYLQMNSLKPEDTAVYYCAAEIYPIGWDDYDYWGQGTQVTVSS
  polyreactivity (PSR sort gate): low polyreactivity

## QVQLVESGGGLVQAGGSLRLSCAASGGIFTDYTMGWYRQAPGKERELVAAITWTGGSTYYADSVKGRFTISRDNAKNSVYLQMNSLKPEDTAVYYCAADEYWVNLDYWGQGTQVTVSS
  polyreactivity (PSR sort gate): low polyreactivity

## QVQLVESGGGLVQAGGSLRLSCAASGGIFTGNAMGWYRQAPGKERELVAAINRRTGSTYYADSVKGRFTISRDNAKNTVYLQMNSLKPEDTAVYYCATRRYRSYTYDYWGQGTQVTVSS
  polyreactivity (PSR sort gate): high polyreactivity

## QVQLVESGGGLVQAGGSLRLSCAASGGIFTKNAMGWYRQAPGKERELVAGISRTGGNTYYADSVKGRFTISRDNAKNTVYLQMNSLKPEDSAVYYCAAGRYYAVWQSISGFDSWGQGTQVTVSS
  polyreactivity (PSR sort gate): low polyreactivity

## QVQLVESGGGLVQAGGSLRLSCAASGGIFTKNAMGWYRQAPGKERELVAGISRTGGNTYYADSVKGRFTISRDNAKNTVYLQMNSLKPEDTAVYYCHWAKWYRYGGYRSRYDYWGQGTQVTVSS
  polyreactivity (PSR sort gate): low polyreactivity

## QVQLVESGGGLVQAGGSLRLSCAASGGIFTLYVMGWYRQAPGKERELVAAISRTGGSTYYADSVKGRFTISRDNAKNTVYLQMNSLKPEDTAVYFCAALYRGGTRYGGYDYWGQGTQVTVSS
  polyreactivity (PSR sort gate): high polyreactivity

## QVQLVESGGGLVQAGGSLRLSCAASGGIFTPYAMGWYRQAPGKERELVAAISRSGGSTYYADSVKGRFTISRDNAKNTVYLQMNSLKPEDTAVYYCNALFRALKAFSQYNYWGQGTQVTVSS
  polyreactivity (PSR sort gate): high polyreactivity

## QVQLVESGGGLVQAGGSLRLSCAASGGIFTQYAMGWSRQAPWKERELVAAITRSGGTYYADSVKGRFTISRDNAKNTVYLQMNSLKPEDTAVYYCAAEWIDAYYDYDYWGQGTQVTVSS
  polyreactivity (PSR sort gate): high polyreactivity

## QVQLVESGGGLVQAGGSLRLSCAASGGIFVSYAMGWSRQAPGKERELVARINTVDGTNYADSVKGRFTISRDNAKNTVYLQMNSLKPEDTAVYYCAVRSPVLASDYGYYFLRDYWGQGTQVTVSS
  polyreactivity (PSR sort gate): low polyreactivity

## QVQLVESGGGLVQAGGSLRLSCAASGGIFWFYAMGWYRQAPGKERELVASIRSSDGGTYYADSVKGRFTISRDNAKNTVYLQMNSLKPEDTAVYYCAADQTYERHWVYYWGQGTQVTVSS
  polyreactivity (PSR sort gate): low polyreactivity

## QVQLVESGGGLVQAGGSLRLSCAASGGIFWYNAMGWYRQAPGKERELVAAITWNGGRTYYADSVKGRFTISRDNAKNTVYLQMNSLKPEDTAVYYCAARSPVKRQSRKQYYYWGQGTQVTVSS
  polyreactivity (PSR sort gate): high polyreactivity

## QVQLVESGGGLVQAGGSLRLSCAASGGIFYDYAMGWYRQAPGKERELVAAITRSGDSTYYADSVKGRFTISRDNPKNTVYLQMNSLKPEDTAVYYCAADIWSSDYEEFYYWGQGTQVTVSS
  polyreactivity (PSR sort gate): low polyreactivity
